{"source": "patent US11583589B2", "about": "“Cell membrane penetrating conjugates” (priority 2017, dated 2023)", "system": "HeLa cells", "assay": "Cellular uptake of NHS-coumarin labelled proteins, fluorescence microscopy", "type": "cell-based", "method": "Labelling of proteins with fluorescent dyes—Fluorescent dyes were considered as an example of a functional molecule for investigating the cell membrane penetration ability of the conjugate. Labelling of the recombinant protein with a dye was carried out by performing a series of reaction in dark conditions. The protein to be labelled was collected in PBS buffer (1× and pH 7.3) and the dye was collected at two to three times higher concentration to that of the protein. The protein was added to 0.1M sodium carbonate buffer (pH 8.5) followed by the dye. The dye was added very slowly (30 μl each time) to the buffer containing the protein kept on ice accompanied by occasional shaking. The resulting solution was wrapped with aluminium foil to keep away any light. The solution was stirred for 1 hour at room temperature and was then purified by gel filtration, i.e. passed through a desalting column or a PD 10 column with 1×PBS buffer. […]\nCellular uptake of labelled proteins—The uptake of labelled proteins was checked by treating mammalian cells with different labelled proteins such as AlbG (SEQ ID NO: 1), EfsQNR (SEQ ID NO: 2) and, as a comparative example, TtCuA (SEQ ID NO: 13). […] The cells were then washed twice, after 3 hours and 24 hours with HBSS (Hanks […] salt solution) or PBS and observed under fluorescence microscopy and/or confocal laser scanning microscope. […]", "data": [{"molecule": "TtCuA-NHSC: comparative example: TtCuA protein (SEQ ID NO: 13, Thermus thermophilus) labelled with NHS-coumarin dye (conjugate, NHS-coumarin dye label; Amino acid sequence of TtCuA protein) AYTLATHTAGVIPAGKLERVDPTTVRQEGPWADPAQAVVQTGPNQYTVYVLAFAFGYQPNPIEVPQGAEIVFKITSPDVIHGFHVEGTNINVEVLPGEVSTVRYTFKRPGEYRIICNQYCGLGHQNMFGTIVVKE", "values": [{"measurement": "fluorescence inside the cells (presence of conjugate inside the cells)", "setting": "NHS-C labelled protein, Hoechst Blue co-stain", "value": "significantly less fluorescence"}, {"measurement": "cell penetration ability (cell uptake), compared between conjugates", "setting": "NHS-C labelled proteins", "value": "not able to effectively penetrate the cell membrane"}]}]}
